Measurements from the RNAGym collection of RNA variant scans (doi:10.1073/pnas.2313332121).
Fewer inactive variants are shown than the library holds.

B1: TPR 5TU (parent)
chain: GGAUCUUCUCGAUCUAACAAAAAAGACAAAUCUGCCACAAAGCUUGAGAGCAUCUUCGGAUGCAGAGGCGGCAGCCUUCGGUGGCGCGAUAGCGCCAACGUUCUCAACUAUGACACGCAAAACGCGUGCUCCGUUGAAUGGAGUUUAUCAUG

Variants of: B1
Assay: polymerase ribozyme fitness, log enrichment relative to wild type (log ratio); higher = more active; in vitro selection for triplet polymerase activity
Procedure, shortened: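 The heterodimeric triplet polymerase ribozyme's subunits were each mutagenized into PCR-built libraries and transcribed. Every library was selected once, in triplicate, by annealing with a biotinylated primer, the partner subunit and triplets, incubating frozen at −7 °C, gel-excising extended constructs, capturing on streptavidin beads and running RT-PCR. Input and output libraries were Illumina-sequenced, with genotypes kept only at ≥10 input reads and ≥1 read per output. Fitness, from inverse-variance-weighted replicate averages, is the base-2 logarithm of genotype enrichment over wild-type enrichment.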

| Variant | polymerase ribozyme fitness (log ratio) |
| --- | --- |
| A22U A52C G58C G84U C99A | ≤ -4.2 |
| G124U G136A | 0.382 |
| C10G G11C A12G G70U C85G U101C G128A | ≤ -4.2 |
| C10G U61C G86C C105G A119C | ≤ -4.2 |
| A3C A41G G50C U53G G67U G86C G128U C129U U146G C149U | ≤ -4.2 |
| A49U G68C | ≤ -4.2 |
| A12G C93G | -2.99 |
| A40U G50U A60C A73G C85U U151G | ≤ -4.2 |
| A29U G71C C93U U109G G124C | ≤ -4.2 |
| C8U C57A | -2.69 |
| U53A C54A U82A G141C | -2.84 |
| G84A G100A A106G A113U G117U C123U A142C | ≤ -4.2 |
| C10A C14G A19U A30C C93U | ≤ -4.2 |
| C10G C14U G50C C54A C76G C105G | ≤ -4.2 |
| C32G U53C C76A | -4.09 |
| A47C C96A | -0.697 |
| U6G C18G A66C G68C G88C G152C | ≤ -4.2 |
| A52C C57U U102G U146G | ≤ -4.2 |
| C85A U130A | -2.45 |
| C8G A17G A21U A98G | -3.93 |
| U44G G50A C57G C72G C114A G140C | ≤ -4.2 |
| U6C C35U G59A A66C G84U C93U A98U G100A A106C A142C | ≤ -4.2 |
| C57G A73C C87G A97G U101G U130C | ≤ -4.2 |
| A21U G34A C93U C99G C149G | ≤ -4.2 |

| Variant | polymerase ribozyme fitness (log ratio) |
| --- | --- |
| U31A C75G C76G C96A U145G | ≤ -4.2 |
| A3C A23C G74A C85A C103U U130A | ≤ -4.2 |
| G48C G68C G70A C129G | ≤ -4.2 |
| G59A G62A G86U A107C | ≤ -4.2 |
| C10A A23U G83U | ≤ -4.2 |
| U33G G58C A120G G133C | -3.81 |
| C5U A142U | -0.885 |
| G67U C79G | ≤ -4.2 |
| C14G G48A A119G | -3.43 |
| A49U C87A | ≤ -4.2 |
| C69A G70C A106G C131U A137C | ≤ -4.2 |
| U15G C79G | -3.38 |
| A40C G50U C85U | 0.316 |
| G46A G59U | 0.917 |
| C57G C93A | -2.2 |
| C10A A91U U101G | -4.05 |
| C8U C54A | -3.8 |
| A39C G68A A89G G128U A138G | ≤ -4.2 |
| C32G C87A A115C | ≤ -4.2 |
| A37C G58A C87A U101G G124C A150U | ≤ -4.2 |
| G42A G86A | -3.97 |
| C5A A22U C75U C76A G88A A89C A91G C105U A119G U144G | ≤ -4.2 |
| G25A C27G A30C C32G G68A C87A A107U | ≤ -4.2 |
| A47U C85G | -2.65 |

| Variant | polymerase ribozyme fitness (log ratio) |
| --- | --- |
| A17U G25C A29U G48C U53A G70U C93G C129A C131A A150C | ≤ -4.2 |
| U82C A89U | -0.15 |
| C43U G74C C93G U146A | ≤ -4.2 |
| A23C C51U G58A C75U C85G G143A U145G | ≤ -4.2 |
| U130G | -2.99 |
| C54U G92U A147U | 0.0812 |
| U53G C54G C96G C114U | ≤ -4.2 |
| G11U G42A G50A C54A C95U G124A | ≤ -4.2 |
| A16U U82G C87U A122C | -2.32 |
| A40U C95U G143U | ≤ -4.2 |
| G50C A66G C96U U146G | ≤ -4.2 |
| C10G A20C U33G C93A G94U C96G C114U U145A | ≤ -4.2 |
| C131A A138C U139G | -3.67 |
| A20U G67U C116G | ≤ -4.2 |
| C27A G50U C57U A60C C116G U146G A147C | ≤ -4.2 |
| A52G C125U C131U G143U U146G | ≤ -4.2 |
| C54G G86U | -3.24 |
| A16G G46U U55A C85A C105A | -4.14 |
| A24U G42C G50U C85G G136A G141A | ≤ -4.2 |
| C14G C38U C95G A106C | -4.14 |
| G84U G86A U90A G100A | ≤ -4.2 |
| G50U C54U C93A G136U | -4.07 |
| U13C A19U U55A G83A U111G | ≤ -4.2 |
| C57U G68U | -3.89 |

| Variant | polymerase ribozyme fitness (log ratio) |
| --- | --- |
| C85A C116G | -0.2 |
| A40U G68C C79U G84A C96A A138C | ≤ -4.2 |
| A16G A49U G62A G92A C96A | ≤ -4.2 |
| U61A G117A | -0.98 |
| A52G G83C C93U | -3.66 |
| C85A A119U A122U G141A | 0.358 |
| A37G C123U | -1.8 |
| C51U A66C G74A U90G U111G | ≤ -4.2 |
| C85G C114G | -3.8 |
| G84U U101G G143U | ≤ -4.2 |
| G58C C72A A110C A147G A150C | ≤ -4.2 |
| C75U G83C | -1.13 |
| A23G A49U A60G A119U A120U A122C | -3.98 |
| A16C C85U | -1.75 |
| A60C G71C C93G G140A U151C | ≤ -4.2 |
| C14G C27A A37U C54U G67A G94U C105G | ≤ -4.2 |
| C38A A66G G70A | ≤ -4.2 |
| C32G C93G | ≤ -4.2 |
| A89U C96U A138G U146G | ≤ -4.2 |
| A20C G50A C76G G80C A91U A98G | ≤ -4.2 |
| A49U A60U G81U A106G C118A U134C | -3.51 |
| U53A C76A G84C A122U | ≤ -4.2 |
| U13G A21C C27A U55A C99A C103G | ≤ -4.2 |
| G71U G84A A106U C118A G152A | ≤ -4.2 |

| Variant | polymerase ribozyme fitness (log ratio) |
| --- | --- |
| A29U U44A C85G G124A G152A | ≤ -4.2 |
| A41G U104G C105U A122C | -1.26 |
| A97G U101G | 0.358 |
| G48C C96G C103G C105G A106G | -3.96 |
| A66U G88A U109A A122C | ≤ -4.2 |
| A89G G92C A97C C114U | -3.82 |
| C87U A120U C123G | -1.06 |
| A21U C85U | -0.171 |
| A17G C18G A64G C85A G100A A106U A119U | ≤ -4.2 |
| C14A A19U A21C A60G | -1.8 |
| C10U A22U A29G U61A C95G | -4 |
| U6G C18G C36U C96G A98G | -2.92 |
| A29G C95G U127G | ≤ -4.2 |
| A73G C93G U130C | -3.08 |
| C8U A20C A49G U53A C95A A106G C118G | ≤ -4.2 |
| U78C G84A G136U | -3.14 |
| G94U C108U | -3.54 |
| C27G A39G C93G G112A C129G | ≤ -4.2 |
| C54U U78G C96G A113U | ≤ -4.2 |
| U53A U55A C96A U127C A138U | ≤ -4.2 |
| G84A A121C U127G | -2.56 |
| U77A C95U | ≤ -4.2 |
| A17U C93U C114A C116G | ≤ -4.2 |
| G11U U13G G62U C69U G81A C87U | ≤ -4.2 |

| Variant | polymerase ribozyme fitness (log ratio) |
| --- | --- |
| G48A C125U | -0.97 |
| A52G A60G C85A C95G A97G U102A C125A | ≤ -4.2 |
| U55C A119G U145A | -0.113 |
| A98G U127C | -3.01 |
| U109G A115U C125A | -4.05 |
| C32G C57U G80C G86C G152U | ≤ -4.2 |
| A52U U55A U56G A66G C99A C132U | ≤ -4.2 |
| A26C C32G G34C U44A A107G C131U U139C U145C | ≤ -4.2 |
| C32U U77G C103G A138U | ≤ -4.2 |
| A21U A47G C54U G81C G92A C95A C99U | -3.94 |
| C96A G140U | -3.47 |
| C10U A52U C85A | ≤ -4.2 |
| A91G U144A | -3.08 |
| U102C | -0.787 |
| G83U A110U | -4.17 |
| U55C G74C G124A | -4.12 |
| A17U C54G C96U | -2.08 |
| U56A G124C | -1.68 |
| U45G G50C G81C C85A C118A | ≤ -4.2 |
| G70C G80A A91U U104C A120U | ≤ -4.2 |
| C76U C93G G124A C132A | ≤ -4.2 |
| G94C C105G C116A | -2.89 |
| A19G G83C C87U U101G | ≤ -4.2 |
| C118U A142G U148C | -2.86 |

| Variant | polymerase ribozyme fitness (log ratio) |
| --- | --- |
| C36U A107G U151A | ≤ -4.2 |
| G25U A49G A52U U90G C125G A142U G143C | ≤ -4.2 |
| C75U G81A C85A C95G A98U | -3.71 |
| C38G A49C C76G C93U C125A U135A G143C U144A | ≤ -4.2 |
| C10U G25U A40U C79U G84A A142C | ≤ -4.2 |
| A19U C54A G70A U82A U134G U139A | ≤ -4.2 |
| U56A A113U | -1.87 |
| U7C U9C A20U C75G C93U A106C C114A | ≤ -4.2 |
| C43A C69G G92C | ≤ -4.2 |
| G34A A39U C96A U135C G140C | ≤ -4.2 |
| C75U C95U C96U | -0.218 |
| A52G G141U | 1 |
| A12G U56G C96U A120U | -0.669 |
| U6A C57G C96U G141C | -0.945 |
| C95U C99A G117U U148A | ≤ -4.2 |
| A41G C57U C85U C116U | 0.221 |
| A12C G50A G59C G92U | -2.67 |
| G11C U53A C72G C79A U82A U90G A106C | ≤ -4.2 |
| C57U G84U G126C | -0.969 |
| U4G A12U A39C G62A C76U C87G A91U | ≤ -4.2 |
| A91U U145G | ≤ -4.2 |
| A17C C85U | 0.349 |
| U55A G92A C125A | -3.46 |
